Results as given in US20260098102A1 (NATIONAL UNIVERSITY CORPORATION KOBE UNIVERSITY, published 2026).
Where a chain is given by its changes, count along the chain named.

B1: humanized anti-SIRPA antibody hD13_H1L3 (antibody, human IgG4 S228P, kappa, F234A L235A, V domains shown)
VH: QVQLVESGGGVVQPGRSLRLSCAASGFTFSDYGMIWVRQAPGKGLEWVASISSSSSYIYYADSVKGRFTISRDNSKNRLYLQMNSLRAEDTAVYYCARRYYGFNYPFDYWGQGTMVTVSS
VL: DTQLTQSPSSLSASVGQRVTITCGASKSVRTYMHWYQQKPGKQPKLLIYSASNLEAGVPSRFSGSGSGTDFTLTISSLQPEDFATYYCQQSNEPPYTFGQGTKLEIKR
notes: hH1 heavy chain (IgG4proFALA) and hL3 kappa light chain; also called hD13_HIL3; HIL3 antibody
B2: humanized anti-SIRPA antibody hD13_H1L4 (antibody, human IgG4 S228P, kappa, F234A L235A, V domains shown)
VH: B1 VH
VL: DTVLTQSPDSLAVSLGQRATINCGASKSVRTYMHWYQQKPGQQPKLLIYSASNLEAGVPSRFSGSGSGTDFTLTISSLQAEDVAVYYCQQSNEPPYTFGQGTKVEIKR
notes: hH1 heavy chain (IgG4proFALA) and hL4 kappa light chain; also called hD13_HIL4; hD13_HIL4h
B3: humanized anti-SIRPA antibody hD13_H2L2 (antibody, human IgG4 S228P, kappa, F234A L235A, V domains shown)
VH: B1 VH with Q1E, R78T
VL: B1 VL with D1A, T2I, Q43A
notes: hH2 heavy chain (IgG4proFALA) and hL2 kappa light chain; also called H2L2 antibody
B4: humanized anti-SIRPA antibody hD13_H2L3 (antibody, human IgG4 S228P, kappa, F234A L235A, V domains shown)
VH: B1 VH with Q1E, R78T
VL: B1 VL
notes: hH2 heavy chain (IgG4proFALA) and hL3 kappa light chain; also called H2L3 antibody
B5: human chimeric anti-SIRPA antibody cD13 (antibody, human IgG4 S228P, kappa, F234A L235A, V domains shown)
VH: EVQLVESGGGLVQPGRSLKLSCLASGFTFSDYGMIWVRQAPGKGLEWVASISSSSSYIYYADTVKGRFTISRENAKNTLFLHMTSLRSEDTALYYCARRYYGFNYPFDYWGQGVMVTVSS
VL: DTVLTQSPALAVSLGQRVTISCGASKSVRTYMHWYQQKSGQQPKLLIYSASNLEAGVPSRFSGSGSGTDFTLTIDPVEADDIANYYCQQSNEPPYTFGAGTKLELKR
notes: Human IgG4proFALA heavy chain, human kappa light chain; also called cD13 (IgG4pf); human chimeric antibody D13

Molecular target: T1, cSIRPA_ECD (cynomolgus monkey)
T1 construct: Secreted recombinant protein
T1 chain: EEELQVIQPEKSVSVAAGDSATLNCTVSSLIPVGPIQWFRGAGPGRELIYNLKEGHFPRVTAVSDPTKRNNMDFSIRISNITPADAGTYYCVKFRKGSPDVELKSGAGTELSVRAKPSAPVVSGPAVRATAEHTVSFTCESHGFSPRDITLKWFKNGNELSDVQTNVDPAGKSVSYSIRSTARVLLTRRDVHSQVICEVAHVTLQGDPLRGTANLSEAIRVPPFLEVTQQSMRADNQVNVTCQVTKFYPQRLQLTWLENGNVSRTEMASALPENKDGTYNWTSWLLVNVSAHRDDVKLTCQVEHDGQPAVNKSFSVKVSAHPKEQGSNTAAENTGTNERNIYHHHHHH
Test: SPR Biacore T200, antibody captured on anti-human IgG (Fc), monkey SIRPA_ECD as analyte, 1:1 model
Description: The dissociation constants of hD13_HIL3, hD13_HIL4, hD13_H2L2, and hD13_H2L3 prepared in Example 7 against human SIRPA_V1_IgV and monkey SIRPA_ECD prepared in Example 1 were measured by a capture method of capturing a humanized antibody as a ligand to an Anti-Human IgG (Fc) antibody immobilized using Human Antibody Capture Kit (GE Healthcare Bioscience Corp.) and measuring an antigen as an analyte, using Biacore T200 (GE Healthcare Bioscience Corp.). HBS-EP+ (GE Healthcare Bioscience Corp.) was used as a running buffer, and CM5 (GE Healthcare Bioscience Corp.) was used as a sensor chip. Onto the chip, 1 μg/mL humanized antibody was added at 10 μL/min for 60 seconds, and then a serially diluted solution (0.5 to 8 μg/mL) of human SIRPA protein or a serially diluted solution (1 to 16 μg/mL) of monkey SIRPA protein was added as an antigen at a flow rate of 30 μL/min for 120 seconds, and subsequently the dissociation phase for 600 seconds was monitored. As a regenerant, 3 M magnesium chloride (GE Healthcare Bioscience Corp.) was added at a flow rate of 20 μL/min for 30 seconds. For data analysis, a binding rate constant (ka), a dissociation rate constant (kd), and a dissociation constant (KD; KD=kd/ka) were calculated using a 1:1 binding model.
For B1, the Kd was 38.6 nM.
Work on B2 yielded a Kd of 83.9 nM.
With B3 the Kd was 162 nM.
B4 gave a Kd of 54.2 nM.

What follows are binders tested against T2, human SIRPA_V10 (human, UniProt P78324 31-504) (assay: cell-based ELISA on 293α cells expressing FLAG-tagged SIRPA_V10; Abs 490 normalized to FLAG tag [ii]).
T2 construct: FLAG-tagged (pFLAG V5-DEST), on 293α cells; also called human SIRPA Variant 10
T2 sequence (P78324 other isoform, or with tags, fused parts or gaps limits assumed): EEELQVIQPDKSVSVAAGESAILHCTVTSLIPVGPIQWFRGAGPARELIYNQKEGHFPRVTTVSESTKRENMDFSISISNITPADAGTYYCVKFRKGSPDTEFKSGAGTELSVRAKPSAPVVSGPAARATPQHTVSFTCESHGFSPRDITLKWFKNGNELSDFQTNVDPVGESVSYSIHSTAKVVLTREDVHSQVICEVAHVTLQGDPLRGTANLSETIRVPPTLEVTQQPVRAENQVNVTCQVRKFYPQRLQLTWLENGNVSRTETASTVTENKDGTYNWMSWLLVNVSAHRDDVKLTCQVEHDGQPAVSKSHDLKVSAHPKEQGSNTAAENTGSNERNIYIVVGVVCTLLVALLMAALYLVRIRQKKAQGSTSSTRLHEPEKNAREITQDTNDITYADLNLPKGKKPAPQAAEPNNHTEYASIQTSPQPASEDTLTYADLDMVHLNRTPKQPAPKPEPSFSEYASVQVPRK
Description: (§1) The 293a cells, described in Example 1)-6, were prepared at 5× 10⁵ cells/mL in a 10% FBS-containing DMEM medium. pFLAG V5-DEST-SIRPA_V1-V10, pFLAG V5-DEST-monkey SIRPA, pFLAG V5-DEST-mouse SIRPA, or pFLAG V5-DEST was introduced into the cells using Lipofectamine LTX (Invitrogen), and 100 μL each was aliquoted to a 96-well plate (Corning Incorporated) and cultured overnight in a 10% FBS-containing DMEM medium at 37° C. under a 5% CO₂ condition. The obtained introduced cells were used for cell-based ELISA in a state that they adhered. After the culture supernatant was removed, 50 μL per well of hD13_HIL3, hD13_HIL4h, hD13_H2L2, hD13_H2L3, or cD13 prepared in Examples 6 and 7 or a control antibody was added to each of various SIRPA genes-introduced cells at a final concentration of 0 to 10,000 ng/ml, and the mixture was allowed to stand at 4° C. for one hour. Thereafter, binding to human SIRPA was evaluated in the same manner as in Example 5-1.
B1 was tested, and the “EC50 (read off the curve)” value was about 0.03 µg/mL.
For B2, the “EC50 (read off the curve)” value was about 0.03 µg/mL.
For B3, the “EC50 (read off the curve)” value was about 0.03 µg/mL.
B4 was tested, and the “EC50 (read off the curve)” value was about 0.03 µg/mL.
With B5 the “EC50 (read off the curve)” value was about 0.03 µg/mL.

Molecular target: T3, mouse SIRPA_NOD (mouse (NOD), UniProt P97797 32-513)
T3 construct: FLAG-tagged (pFLAG V5-DEST), on 293α cells; also called NOD SCID
T3 chain: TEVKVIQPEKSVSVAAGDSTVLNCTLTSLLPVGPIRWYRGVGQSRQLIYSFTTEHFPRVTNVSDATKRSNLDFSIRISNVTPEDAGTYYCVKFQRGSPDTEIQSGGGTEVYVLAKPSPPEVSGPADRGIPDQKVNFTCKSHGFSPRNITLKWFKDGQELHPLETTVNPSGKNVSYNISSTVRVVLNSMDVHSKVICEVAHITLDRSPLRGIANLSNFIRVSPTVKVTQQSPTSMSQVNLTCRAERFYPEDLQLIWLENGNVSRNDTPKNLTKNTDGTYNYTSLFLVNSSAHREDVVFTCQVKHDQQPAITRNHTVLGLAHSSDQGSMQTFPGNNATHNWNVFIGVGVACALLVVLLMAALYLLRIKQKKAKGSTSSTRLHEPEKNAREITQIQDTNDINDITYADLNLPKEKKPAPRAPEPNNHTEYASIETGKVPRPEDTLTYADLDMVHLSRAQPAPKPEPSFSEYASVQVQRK
Test: cell-based ELISA on 293α cells expressing FLAG-tagged mouse SIRPA (NOD); Abs 490 normalized to FLAG tag [i]
Description: as §1
B1: no binding (tested: 10000 ng/mL).
B2: no binding (tested: 10000 ng/mL).
B3: no binding (tested: 10000 ng/mL).
B4: no binding (tested: 10000 ng/mL).
B5: no binding (tested: 10000 ng/mL).
